Tests used:
human PD-L1 on cells [1] = target: T1, human PD-L1 on cells (human, UniProt Q9NZQ7 19-290); assay: cell-based or functional assay
[2] = target: T2, mouse PD-L1-hFc protein (ACRO Biosystems) (mouse, UniProt Q9EP73 19-238); assay: ELISA, plate coated with mouse PD-L1-hFc
T2 construct: Bought protein; not shown: human Fc (hFc)
Procedure: (§1) A 96-well plate was coated with 1 μg/mL mouse PD-L1-hFc protein (manufacturer: ACRO Biosystems) and incubated at 4° C. overnight. The plate was washed with wash buffer and blocked with a PBS solution containing 2% BSA for 60 minutes. After a wash with wash buffer, different concentrations of the antibodies to be tested (the initial concentration was 100 nM, and 4-fold gradient dilution was performed) were added, and the plate was incubated at 37° C. for 120 minutes. The plate was washed with wash buffer, and an HRP-labeled goat anti-human secondary antibody (diluted at 1:10,000) was then added. The plate was incubated at 37° C. for 60 minutes. The plate was washed with wash buffer, and TMB substrate solution was added at 100 μL/well. After 10-15 minutes of reaction at room temperature, 100 μL of 2 M hydrochloric acid stop solution was added to stop the reaction, and OD450 values were measured with a microplate reader.

[3] = target: T3, Cynomolgus/Rhesus macaque PD-L1-hFc protein (ACRO Biosystems) (Cynomolgus/Rhesus macaque, UniProt G7PSE7 19-238); assay: ELISA, plate coated with Cynomolgus/Rhesus macaque PD-L1-hFc
T3 construct: Bought protein; also called Cyno PD-L1; cynomolgus monkey PD-L1
Procedure: as §1, with “1 μg/mL Cynomolgus/Rhesus macaque PD-L1-hFc protein” for “1 μg/mL mouse PD-L1-hFc protein”, “buffer and then blocked with” for “buffer and blocked with”, “(diluted at 1:10,000, manufacturer: Jackson) was then” for “(diluted at 1:10,000) was then”, “stop the reaction.” for “stop the reaction, and OD450 values were measured with a microplate reader.”

human PD-L1 on cells [4] = target: T1, human PD-L1 on cells; assay: flow cytometry on MC38-hPD-L1 cells overexpressing human PD-L1
Procedure: The binding activity of the humanized antibodies to PD-L1 was measured by flow cytometry. An MC38-hPD-L1 cell line that overexpresses human PD-L1 (manufacturer: Kyinno Biotechnology (Beijing) Co., Ltd.) was thawed, and the cells were added to a 96-well plate at 1×10⁵ cells/well. Different concentrations of the antibodies to be tested (the initial concentration was 100 nM, and 5-fold gradient dilution was performed) were added, and the plate was incubated at 4° C. for 30 minutes. A fluorescently labeled goat anti-human IgG secondary antibody (manufacturer: abcam, catalog No. 98596) was then added to detect antibodies bound to the cell surfaces. Antibody-antigen binding dose response curves were generated using geometric values, and four-parameter raw data were plotted using the Graphpad Prism V6.0 software.

human PD-L1 on cells [5] = target: T1, human PD-L1 on cells; assay: competitive flow cytometry on 293T-PD-L1 cells, blocking of human-CD80-mFc binding
Procedure: The blocking of PD-L1 binding to CD-80 by the antibodies was measured using a competitive flow cytometry method. 293T-PD-L1 cells were added to a 96-well plate at 1×10⁵ cells/well. Antibody dilutions with different concentrations (the initial working concentration was 200 nM, and 4-fold dilution was performed) were added to the cells, and the plate was incubated at 4° C. for 30 minutes. After the incubation, the plate was washed with PBS containing 2% FBS and centrifuged at 1200 rpm for 4 minutes, and the supernatants were discarded. Then human-CD80-mFc (2 μg/mL, manufacturer: ACRO) was added at 100 μL/well, and the plate was incubated in the dark at 4° C. for 30 minutes. After the incubation, the plate was washed with PBS containing 2% FBS. A fluorescently labeled goat anti-mouse IgG secondary antibody diluted at 1:200 was added at 100 μL/well, and the plate was incubated in the dark at 4° C. for 30 minutes. After the incubation, the plate was washed with PBS containing 2% FBS and tested on a flow cytometer. The mean fluorescence values were measured.

PD-L1-Biotin = PD-L1-Biotin (UniProt Q9NZQ7 19-238, limits assumed, biotin label (site not stated)); assay: competitive flow cytometry: antibody premixed with PD-L1-Biotin, blocking of binding to 293T-hPD1 cells
Procedure: The blocking of PD-L1 binding to its ligand PD-1 by the humanized antibodies was measured using a method based on competitive flow cytometry. 293T-hPD1 cells were added to a 96-well plate at 1×10⁵ cells/well. Different concentrations of the antibodies to be tested (the initial working concentration was 200 nM, and 4-fold dilution was performed) were mixed with a PD-L1-Biotin dilution (2 μg/mL, 50 μL/well), and the mixtures were incubated at room temperature for 30 minutes. Then the mixtures were added to the cells at 100 μL/well and well mixed. The plate was incubated at 4° C. for 60 minutes, and the blocking activity of the antibodies was measured using a PE fluorescently labeled streptavidin flow cytometry antibody. The mean fluorescence values were measured. Then antibody-antigen blocking reaction curves were generated using geometric values, and four-parameter plots were generated using the Graphpad Prism V6.0 software.

Sequence of PD-L1-Biotin (Q9NZQ7 19-238 limits assumed): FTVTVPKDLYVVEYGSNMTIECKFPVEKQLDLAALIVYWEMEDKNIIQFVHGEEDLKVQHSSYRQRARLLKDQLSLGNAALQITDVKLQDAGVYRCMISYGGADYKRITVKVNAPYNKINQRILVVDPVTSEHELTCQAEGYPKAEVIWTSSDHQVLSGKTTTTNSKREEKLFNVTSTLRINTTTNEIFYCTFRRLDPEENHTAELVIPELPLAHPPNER
T2 sequence (Q9EP73 19-238 limits assumed): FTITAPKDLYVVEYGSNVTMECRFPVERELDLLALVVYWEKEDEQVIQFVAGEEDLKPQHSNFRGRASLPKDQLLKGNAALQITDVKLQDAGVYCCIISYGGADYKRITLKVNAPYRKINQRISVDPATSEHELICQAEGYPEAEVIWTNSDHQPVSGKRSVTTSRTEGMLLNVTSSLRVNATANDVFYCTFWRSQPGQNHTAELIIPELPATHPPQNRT
T3 sequence (G7PSE7 entry or part of it limits assumed, form in doubt): as the sequence (Q9NZQ7 19-238 limits assumed) above, with A33T, A34S, S62N, R68Q, Q82R, F173L, T185A, T192I, H215L counted along it
T1 sequence (Q9NZQ7 19-290): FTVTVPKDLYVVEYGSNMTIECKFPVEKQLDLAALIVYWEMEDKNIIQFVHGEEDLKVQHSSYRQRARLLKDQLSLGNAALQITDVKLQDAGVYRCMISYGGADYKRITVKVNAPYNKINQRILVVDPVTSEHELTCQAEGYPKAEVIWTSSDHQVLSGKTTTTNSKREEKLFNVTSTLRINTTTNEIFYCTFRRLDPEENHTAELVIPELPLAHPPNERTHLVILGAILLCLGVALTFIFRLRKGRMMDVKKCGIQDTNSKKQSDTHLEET

| IC50 (nM), NFAT-luciferase reporter gene assay (human PD-L1 on cells [1]) [nM] | EC50 [3] [nM] | EC50 (human PD-L1 on cells [4]) [nM] | IC50 (human PD-L1 on cells [5]) [nM] | IC50 (PD-L1-Biotin) [nM] | Binder | binding result [2] |
| --- | --- | --- | --- | --- | --- | --- |
| 0.211 | 0.04 | 0.025 | 5.2 | 1.1 | antibody 3 (VHH) VHH: EVQLVESGGGSVQTGGSLRLSCVASGRDFLTYGMGWFRQAPGKEREFVASINWSGSMTYYADSVKGRFTISRDNAKNTVYLQMNSLKPGDTAVYICAARRGAVTYASSNEYEHWGQGTQVTVSS | no binding (tested: initial concentration 100 nM) |
| 0.26 | 0.034 | 0.16 | 1.5 | 2.8 | antibody 4 (VHH) VHH: EVQLVESGGGLVQAGDSLRLSCTASGRDFLTYGMGWFRQAPGKEREFVASINWSGSMTYYADSVKGRFTISRDNAKNTVYLQMNSLKPGDTAVYICAARRGAVTYASSNEYEHWGQGTQVTVSS | no binding (tested: initial concentration 100 nM) |
|  |  | 0.025 |  |  | antibody 3hu (VHH, Humanized nanobody; also called humanized antibody 3) VHH: EVQLVESGGGLVQPGGSLRLSCAASGRDFLTYGMGWFRQAPGKGREFVASINWSGSMTYYADSVKGRFTISRDNAKNTVYLQMNSLKAEDTAVYICAARRGAVTYASSNEYEHWGQGTLVTVSS |  |
| 0.2 | 0.136 | 0.14 | 1.5 | 2.7 | antibody 2 (VHH) VHH: QVQLVESGGGLVQPGGSLSLSCVASGFTFSSYAMRWVRQAPGKEPEWVAGINTGSEIVVYANSVRGRFAISRDNARDTLFLQMNSLKPEDTAVYYCATGLVSAEHDGIWGQGTQVTVSS | no binding (tested: initial concentration 100 nM) |
| 0.378 | 0.133 | 0.041 | 2.6 | 4.2 | antibody 1 (VHH, expressed in mammalian cells) VHH: QVQLVESGGGLVQAGGSLRLSCAASGRSFSSSGMGWFRQAPGKDREFVATINSSGGDTYYRDSVEGRFTTSRDNAKNTMSLQMNDLKPEDTAVYYCAAKEGGGPSSIPAIYDYWGQGTQVTVSS | no binding (tested: initial concentration 100 nM) |
| 0.305 | 0.034 |  |  |  | antibody 5 (VHH) VHH: QVQLVESGGGLVQAGGSLRLSCAASGRSFSSSGMGWFRQAPGKDREFVATINSSGGDTYYADSVEGRFTTSRDNAKNTMSLQMNDLKPEDTAVYYCAAKEGGGPSSIPAIFDYWGQGTQVTVSS | no binding (tested: initial concentration 100 nM) |

Reference: patent US20240327518A1 (BETTA PHARMACEUTICALS, published 2024)
